Results published in article PMC4650713 (2015).

Biological target: BaxΔC21 (UniProt Q07812 1-171, C62S | C126S)
Experiment: SPR

BaxΔC21, sequence (Q07812 1-171 C62S/C126S): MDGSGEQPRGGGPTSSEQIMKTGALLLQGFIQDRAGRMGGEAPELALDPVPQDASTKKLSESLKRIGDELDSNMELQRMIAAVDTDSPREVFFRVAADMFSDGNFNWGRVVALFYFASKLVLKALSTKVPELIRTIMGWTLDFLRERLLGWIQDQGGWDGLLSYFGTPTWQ

| Binder | IC50 |
| --- | --- |
| SESQEDIIRNIARHLAQVGDSMDRSIPPGLVNGL [BidBH3 peptide] | 306 nM |
| SESQEDIIRNIARHLRQVGDSMDRSIPPGLVNGL [BidBH3 A91R] | 41 nM |
